The series deals with the molecule itself. Nature of the series: analytical size exclusion chromatography, self-association.

Experimental findings from patent US20170037440A1 (MEDIZINISCHE HOCHSCHULE HANNOVER, published 2017) are described below.

B1: Δ69-CsaBco-His6 (enzyme)
chain: MLIPINFFNFEYIVKKLNNQNAIGVYILPSNLTLKPALCILESHKEDFLNKFLLTISSENLKLQYKFNGQIKNPKSVNEIWTDLFSIAHVDMKLSTDRTLSSSISQFWFRLEFCKEDKDFILFPTANRYSRKLWKHSIKNNQLFKEGIRNYSEISSLPYEEDHNFDIDLVFTWVNSEDKNWQELYKKYKPDFNSDATSTSRFLSRDELKFALRSWEMNGSFIRKIFIVSNCAPPAWLDLNNPKIQWVYHEEIMPQSALPTFSSHAIETSLHHIPGISNYFIYSNDDFLLTKPLNKDNFFYSNGIAKLRLEAWGNVNGECTEGEPDYLNGARNANTLLEKEFKKFTTKLHTHSPQSMRTDILFEMEKKYPEEFNRTLHNKFRSLDDIAVTGYLYHHYALLSGRALQSSDKTELVQQNHDFKKKLNNVVTLTKERNFDKLPLSVCINDGADSHLNEEWNVQVIKFLETLFPLPSSFEKLEHHHHHH
notes: also called ΔN69-CsaB; dN69-CsaB
With B1, the binding result is on record as “binds”.
